Measurements taken from US20220348632A1 (Novartis, published 2022).

T1: mouse Rae-1ε over-expressed on CT26.WT cells (mouse, UniProt Q9CZQ6 29-225)
T1 construct: whole, on cells; also called mouse RAE-1 epsilon; Rae-1E
T1 sequence (looked up): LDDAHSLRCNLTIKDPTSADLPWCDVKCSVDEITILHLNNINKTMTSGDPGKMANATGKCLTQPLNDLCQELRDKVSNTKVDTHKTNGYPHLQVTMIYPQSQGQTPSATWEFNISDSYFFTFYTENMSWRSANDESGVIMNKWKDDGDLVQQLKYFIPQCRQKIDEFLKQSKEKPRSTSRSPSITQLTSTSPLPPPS

T2: mouse Rae-1α over-expressed on CT26.WT cells (mouse, UniProt O08602 29-229)
T2 construct: whole, on cells; also called mouse RAE-1alpha; Rae-1a
T2 sequence (looked up): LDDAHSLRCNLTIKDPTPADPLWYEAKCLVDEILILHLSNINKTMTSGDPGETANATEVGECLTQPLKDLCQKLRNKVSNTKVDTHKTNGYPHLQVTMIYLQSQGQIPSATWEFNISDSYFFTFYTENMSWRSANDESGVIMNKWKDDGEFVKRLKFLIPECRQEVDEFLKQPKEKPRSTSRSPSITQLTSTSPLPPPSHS

B1: MM7, mFc2-(G4S)4-mNKG2D (aa94-232)-RS(G3S)2-mNKG2D (aa94-232) (Fc fusion)
chain: ISAMVRSPRGPTIKPCPPCKCPAPNLLGGPSVFIFPPKIKDVLMISLSPIVTCVVVDVSEDDPDVQISWFVNNVEVHTAQTQTHREDYNSTLRVVSALPIQHQDWMSGKEFKCKVNNKDLPAPIERTISKPKGSVRAPQVYVLPPPEEEMTKKQVTLTCMVTDFMPEDIYVEWTNNGKTELNYKNTEPVLDSDGSYFMYSKLRVEKKNWVERNSYSCSVVHEGLHNHHTTKSFSRTPGKGGGGSGGGGSGGGGSGGGGSFQPVLCNKEVPVSSREGYCGPCPNNWICHRNNCYQFFNEEKTWNQSQASCLSQNSSLLKIYSKEEQDFLKLVKSYHWMGLVQIPANGSWQWEDGSSLSYNQLTLVEIPKGSCAVYGSSFKAYTEDCANLNTYICMKRAVRSGGGSGGGSFQPVLCNKEVPVSSREGYCGPCPNNWICHRNNCYQFFNEEKTWNQSQASCLSQNSSLLKIYSKEEQDFLKLVKSYHWMGLVQIPANGSWQWEDGSSLSYNQLTLVEIPKGSCAVYGSSFKAYTEDCANLNTYICMKRAV
notes: also called C-terminal variant with a linker length of 20 aa
B2: MM2, mNKG2D (aa94-232)-RS(G3S)2-mNKG2D (aa94-232)-(G4S)2-mFc2 (Fc fusion)
chain: FQPVLCNKEVPVSSREGYCGPCPNNWICHRNNCYQFFNEEKTWNQSQASCLSQNSSLLKIYSKEEQDFLKLVKSYHWMGLVQIPANGSWQWEDGSSLSYNQLTLVEIPKGSCAVYGSSFKAYTEDCANLNTYICMKRAVRSGGGSGGGSFQPVLCNKEVPVSSREGYCGPCPNNWICHRNNCYQFFNEEKTWNQSQASCLSQNSSLLKIYSKEEQDFLKLVKSYHWMGLVQIPANGSWQWEDGSSLSYNQLTLVEIPKGSCAVYGSSFKAYTEDCANLNTYICMKRAVGGGGSGGGGSISAMVRSPRGPTIKPCPPCKCPAPNLLGGPSVFIFPPKIKDVLMISLSPIVTCVVVDVSEDDPDVQISWFVNNVEVHTAQTQTHREDYNSTLRVVSALPIQHQDWMSGKEFKCKVNNKDLPAPIERTISKPKGSVRAPQVYVLPPPEEEMTKKQVTLTCMVTDFMPEDIYVEWTNNGKTELNYKNTEPVLDSDGSYFMYSKLRVEKKNWVERNSYSCSVVHEGLHNHHTTKSFSRTPGK
notes: also called N-terminal, 10 aa linker
B3: MM1, mNKG2D (aa94-232)-RS(G3S)2-mNKG2D (aa94-232)-mFc2 (Fc fusion)
chain: FQPVLCNKEVPVSSREGYCGPCPNNWICHRNNCYQFFNEEKTWNQSQASCLSQNSSLLKIYSKEEQDFLKLVKSYHWMGLVQIPANGSWQWEDGSSLSYNQLTLVEIPKGSCAVYGSSFKAYTEDCANLNTYICMKRAVRSGGGSGGGSFQPVLCNKEVPVSSREGYCGPCPNNWICHRNNCYQFFNEEKTWNQSQASCLSQNSSLLKIYSKEEQDFLKLVKSYHWMGLVQIPANGSWQWEDGSSLSYNQLTLVEIPKGSCAVYGSSFKAYTEDCANLNTYICMKRAVISAMVRSPRGPTIKPCPPCKCPAPNLLGGPSVFIFPPKIKDVLMISLSPIVTCVVVDVSEDDPDVQISWFVNNVEVHTAQTQTHREDYNSTLRVVSALPIQHQDWMSGKEFKCKVNNKDLPAPIERTISKPKGSVRAPQVYVLPPPEEEMTKKQVTLTCMVTDFMPEDIYVEWTNNGKTELNYKNTEPVLDSDGSYFMYSKLRVEKKNWVERNSYSCSVVHEGLHNHHTTKSFSRTPGK
notes: also called mouse NKG2D-Fc surrogate construct, N-terminal, no linker
B4: MM3, mNKG2D (aa94-232)-RS(G3S)2-mNKG2D (aa94-232)-(G4S)4-mFc2 (Fc fusion)
chain: FQPVLCNKEVPVSSREGYCGPCPNNWICHRNNCYQFFNEEKTWNQSQASCLSQNSSLLKIYSKEEQDFLKLVKSYHWMGLVQIPANGSWQWEDGSSLSYNQLTLVEIPKGSCAVYGSSFKAYTEDCANLNTYICMKRAVRSGGGSGGGSFQPVLCNKEVPVSSREGYCGPCPNNWICHRNNCYQFFNEEKTWNQSQASCLSQNSSLLKIYSKEEQDFLKLVKSYHWMGLVQIPANGSWQWEDGSSLSYNQLTLVEIPKGSCAVYGSSFKAYTEDCANLNTYICMKRAVGGGGSGGGGSGGGGSGGGGSISAMVRSPRGPTIKPCPPCKCPAPNLLGGPSVFIFPPKIKDVLMISLSPIVTCVVVDVSEDDPDVQISWFVNNVEVHTAQTQTHREDYNSTLRVVSALPIQHQDWMSGKEFKCKVNNKDLPAPIERTISKPKGSVRAPQVYVLPPPEEEMTKKQVTLTCMVTDFMPEDIYVEWTNNGKTELNYKNTEPVLDSDGSYFMYSKLRVEKKNWVERNSYSCSVVHEGLHNHHTTKSFSRTPGK
notes: also called N-terminal, 20 aa linker
B5: MM8, mFc2-(G4S)6-mNKG2D (aa94-232)-RS(G3S)2-mNKG2D (aa94-232) (Fc fusion)
chain: ISAMVRSPRGPTIKPCPPCKCPAPNLLGGPSVFIFPPKIKDVLMISLSPIVTCVVVDVSEDDPDVQISWFVNNVEVHTAQTQTHREDYNSTLRVVSALPIQHQDWMSGKEFKCKVNNKDLPAPIERTISKPKGSVRAPQVYVLPPPEEEMTKKQVTLTCMVTDFMPEDIYVEWTNNGKTELNYKNTEPVLDSDGSYFMYSKLRVEKKNWVERNSYSCSVVHEGLHNHHTTKSFSRTPGKGGGGSGGGGSGGGGSGGGGSGGGGSGGGGSFQPVLCNKEVPVSSREGYCGPCPNNWICHRNNCYQFFNEEKTWNQSQASCLSQNSSLLKIYSKEEQDFLKLVKSYHWMGLVQIPANGSWQWEDGSSLSYNQLTLVEIPKGSCAVYGSSFKAYTEDCANLNTYICMKRAVRSGGGSGGGSFQPVLCNKEVPVSSREGYCGPCPNNWICHRNNCYQFFNEEKTWNQSQASCLSQNSSLLKIYSKEEQDFLKLVKSYHWMGLVQIPANGSWQWEDGSSLSYNQLTLVEIPKGSCAVYGSSFKAYTEDCANLNTYICMKRAV
notes: also called C-terminal variant with a linker length of 30 aa
B6: MM5, mFc2-mNKG2D (aa94-232)-RS(G3S)2-mNKG2D (aa94-232) (Fc fusion)
chain: ISAMVRSPRGPTIKPCPPCKCPAPNLLGGPSVFIFPPKIKDVLMISLSPIVTCVVVDVSEDDPDVQISWFVNNVEVHTAQTQTHREDYNSTLRVVSALPIQHQDWMSGKEFKCKVNNKDLPAPIERTISKPKGSVRAPQVYVLPPPEEEMTKKQVTLTCMVTDFMPEDIYVEWTNNGKTELNYKNTEPVLDSDGSYFMYSKLRVEKKNWVERNSYSCSVVHEGLHNHHTTKSFSRTPGKFQPVLCNKEVPVSSREGYCGPCPNNWICHRNNCYQFFNEEKTWNQSQASCLSQNSSLLKIYSKEEQDFLKLVKSYHWMGLVQIPANGSWQWEDGSSLSYNQLTLVEIPKGSCAVYGSSFKAYTEDCANLNTYICMKRAVRSGGGSGGGSFQPVLCNKEVPVSSREGYCGPCPNNWICHRNNCYQFFNEEKTWNQSQASCLSQNSSLLKIYSKEEQDFLKLVKSYHWMGLVQIPANGSWQWEDGSSLSYNQLTLVEIPKGSCAVYGSSFKAYTEDCANLNTYICMKRAV
notes: also called C-terminal, no linker
B7: MM6, mFc2-(G4S)2-mNKG2D (aa94-232)-RS(G3S)2-mNKG2D (aa94-232) (Fc fusion)
chain: ISAMVRSPRGPTIKPCPPCKCPAPNLLGGPSVFIFPPKIKDVLMISLSPIVTCVVVDVSEDDPDVQISWFVNNVEVHTAQTQTHREDYNSTLRVVSALPIQHQDWMSGKEFKCKVNNKDLPAPIERTISKPKGSVRAPQVYVLPPPEEEMTKKQVTLTCMVTDFMPEDIYVEWTNNGKTELNYKNTEPVLDSDGSYFMYSKLRVEKKNWVERNSYSCSVVHEGLHNHHTTKSFSRTPGKGGGGSGGGGSFQPVLCNKEVPVSSREGYCGPCPNNWICHRNNCYQFFNEEKTWNQSQASCLSQNSSLLKIYSKEEQDFLKLVKSYHWMGLVQIPANGSWQWEDGSSLSYNQLTLVEIPKGSCAVYGSSFKAYTEDCANLNTYICMKRAVRSGGGSGGGSFQPVLCNKEVPVSSREGYCGPCPNNWICHRNNCYQFFNEEKTWNQSQASCLSQNSSLLKIYSKEEQDFLKLVKSYHWMGLVQIPANGSWQWEDGSSLSYNQLTLVEIPKGSCAVYGSSFKAYTEDCANLNTYICMKRAV
notes: also called C-terminal, 10 aa linker
B8: MM4, mNKG2D (aa94-232)-RS(G3S)2-mNKG2D (aa94-232)-(G4S)6-mFc2 (Fc fusion)
chain: FQPVLCNKEVPVSSREGYCGPCPNNWICHRNNCYQFFNEEKTWNQSQASCLSQNSSLLKIYSKEEQDFLKLVKSYHWMGLVQIPANGSWQWEDGSSLSYNQLTLVEIPKGSCAVYGSSFKAYTEDCANLNTYICMKRAVRSGGGSGGGSFQPVLCNKEVPVSSREGYCGPCPNNWICHRNNCYQFFNEEKTWNQSQASCLSQNSSLLKIYSKEEQDFLKLVKSYHWMGLVQIPANGSWQWEDGSSLSYNQLTLVEIPKGSCAVYGSSFKAYTEDCANLNTYICMKRAVGGGGSGGGGSGGGGSGGGGSGGGGSGGGGSISAMVRSPRGPTIKPCPPCKCPAPNLLGGPSVFIFPPKIKDVLMISLSPIVTCVVVDVSEDDPDVQISWFVNNVEVHTAQTQTHREDYNSTLRVVSALPIQHQDWMSGKEFKCKVNNKDLPAPIERTISKPKGSVRAPQVYVLPPPEEEMTKKQVTLTCMVTDFMPEDIYVEWTNNGKTELNYKNTEPVLDSDGSYFMYSKLRVEKKNWVERNSYSCSVVHEGLHNHHTTKSFSRTPGK
notes: also called N-terminal, 30 aa linker

Assays:
[1] = molecular target: T1, mouse Rae-1ε over-expressed on CT26.WT …; experiment: flow cytometry titration on CT26.WT cells over-expressing mouse Rae-1ε; R-PE anti-mouse Fc detection, mean R-PE fluorescence
Experimental: (§1) A […] cell sorting (FACS) based binding assay against mouse NKG2D-ligands expressed at the cell surface was performed to characterize the binding of the dimeric mouse NKG2D-Fc variants fused either to N-terminus or to C-terminus of the Fc region with no peptide linker or with different peptide linker lengths (10, 20 or 30 amino acids).
(§2) Half maximal effective concentration (EC50) in nM was determined on two different engineered stable CT26.WT cell lines, over-expressing at their surface the recombinant ligands mouse Rae-1α and mouse Rae-1E. The cells were incubated with the different concentrations of protein in DPBS supplemented with 5% FCS and 0.04% NaN₃ (FACS buffer). […] For each sample, the mean of the resulting fluorescence of alive gated cells was extracted using the Cell Quest Pro software (BD Biosciences).

[2] = molecular target: T2, mouse Rae-1α over-expressed on CT26.WT …; experiment: flow cytometry titration on CT26.WT cells over-expressing mouse Rae-1α; R-PE anti-mouse Fc detection, mean R-PE fluorescence
Experimental: as §1, §2

| Binder | EC50 [1] [nM] | EC50 [2] [nM] |
| --- | --- | --- |
| B1 | 1.5 | 13 |
| B2 | 1.87 | 1.27 |
| B3 | 2.56 | 1.05 |
| B4 | 1.99 | 0.495 |
| B5 | 0.624 | 15.6 |
| B6 | 3.02 | 0.738 |
| B7 | 0.668 | 1.15 |
| B8 | 1.65 | 0.894 |
